The source of these data is US20240316154A1 (Eli Lilly, published 2024).

The target of one test is T1, Human serum albumin (human, UniProt P02768 25-609).
T1 construct: bought; immobilised on a CM5 chip by amine coupling; also called Human SA
Nature of the test: SPR, SA on chip, VHH 300 nM, 25 C. For orientation: In SPR one partner is held on a chip, and binding of the other changes the refractive index at the surface.

The target in test [1] is T2, Cynomolgus monkey serum albumin (cynomolgus monkey, UniProt A2V9Z4 25-608).
T2 construct: bought; immobilised on a CM5 chip by amine coupling; also called Cyno SA
In words: SPR, SA on chip, VHH 300 nM, 25 C.
Method: (§1) Immobilization of SA to a Series S Sensor Chip CM5 surface is performed according to the manufacturer's instructions (amine coupling kit BR-1000-50). […] Human SA is obtained from Sigma Aldrich (St. Louis, MO; Cat. No. A8763). […] Mouse SA is obtained from Sigma Aldrich (Cat. No. A3559). Rat SA is obtained from Sigma Aldrich (Cat. No. A4538). Pig SA is obtained from Sigma Aldrich (Cat. No. A4414). […] Cow SA is obtained from Sigma Aldrich (Cat. No. A7030). The various SAs are covalently immobilized through free amines onto a carboxymethyl dextran-coated sensor chip CM5 targeting a surface density of average approximately 77 (58-98) RU. Excess reactive groups on the surfaces (flow cell 1 and 2) are deactivated by injecting 70 μL of 1 M ethanolamine hydrochloride-NaOH, pH 8.5, at 10 μL/min.
(§2) VHH moieties are diluted in HBS-EP+buffer (10 mM HEPES, pH 7.6, 150 mM NaCl, 3 mM EDTA, and 0.05% Polysorbate 20) at concentrations of 300 nM. 150 μL of sample is individually injected sequentially across the immobilized SAs surface and is dissociated for 600 sec at a flow rate of 50 L/min at 25 C. […] The resulting sensorgrams are analyzed using Biacore 8K Insight Evaluation Software (version 2.0.15.12933) to calculate the dissociation rate (kd).

The target of test [2] is T3, Mouse serum albumin (mouse, UniProt P07724 25-608).
T3 construct: bought; immobilised on a CM5 chip by amine coupling; also called Mouse SA
In words: SPR, SA on chip, VHH 300 nM, 25 C.
Method: as §1, §2

Test [3] has as its target T4, Rat serum albumin (rat, UniProt P02770 25-608).
T4 construct: bought; immobilised on a CM5 chip by amine coupling; also called Rat SA
Nature of the test: SPR, SA on chip, VHH 300 nM, 25 C.
Method: as §1, §2

The target of test [4] is T5, Pig serum albumin (pig, UniProt P08835 25-607).
T5 construct: bought; immobilised on a CM5 chip by amine coupling; also called Pig SA
Nature of the test: SPR, SA on chip, VHH 300 nM, 25 C.
Method: as §1, §2

In test [5] the target is T6, Dog serum albumin (dog, UniProt P49822 25-608).
T6 construct: bought; immobilised on a CM5 chip by amine coupling; also called Dog SA
In words: SPR, SA on chip, VHH 300 nM, 25 C.
Method: as §1, §2

In test [6] the target is T7, Cow serum albumin (cow, UniProt P02769 25-607).
T7 construct: bought; immobilised on a CM5 chip by amine coupling; also called Cow SA
Nature of the test: SPR, SA on chip, VHH 300 nM, 25 C.
Method: as §1, §2

For test [7], the target named is T2, Cynomolgus monkey serum albumin. In words: SPR, SA on chip, 25 C.
Test [8] deals with T3, Mouse serum albumin. Nature of the test: SPR, SA on chip, 25 C.
For test [9], the target named is T4, Rat serum albumin. In words: SPR, SA on chip, 25 C.
The target in test [10] is T5, Pig serum albumin. In words: SPR, SA on chip, 25 C.
Test [11] concerns the target T6, Dog serum albumin. In words: SPR, SA on chip, 25 C.
Test [12] concerns the target T7, Cow serum albumin. In words: SPR, SA on chip, 25 C.

Method for Human serum albumin: as §1, §2

B1: VHH moiety 8 (MC6.1C22-G26Y) (VHH)
VHH: EVQLLESGGGLVQPGGSLRLSCAASYRYIDETAVAWFRQAPGKEREFVAGIGGGVDITYYADSVKGRFTISRDNSKNTLYLQMNSLRPEDTAVYYCAARPGRPLITSKVADLYPYWGQGTLVTVSS
As usually defined, the koff is a measure of how fast the partners let go of each other. For the molecule B1, the koff with Human serum albumin worked out at 0.001 s⁻¹; in test [1] it was 0.003 s⁻¹; in the test with Mouse serum albumin [2], 0.0032 s⁻¹; with Rat serum albumin [3] it was 0.0075 s⁻¹; with Pig serum albumin [4] it was 0.0092 s⁻¹; in the test with Dog serum albumin [5] it was 0.0022 s⁻¹. Further, in the test with Cow serum albumin [6], the koff came out at 0.015 s⁻¹.

B2: VHH moiety 17 (MC6.1C22-R102K) (VHH)
VHH: EVQLLESGGGLVQPGGSLRLSCAASGRYIDETAVAWFRQAPGKEREFVAGIGGGVDITYYADSVKGRFTISRDNSKNTLYLQMNSLRPEDTAVYYCAARPGKPLITSKVADLYPYWGQGTLVTVSS
Regarding B2, the koff in the test with Human serum albumin stood at 0.0015 s⁻¹; in test [1] it was 0.0022 s⁻¹; with Mouse serum albumin [2], 0.01 s⁻¹; with Rat serum albumin [3] it was 0.0081 s⁻¹; with Pig serum albumin [4], 0.013 s⁻¹; with Dog serum albumin [5] it was 0.0082 s⁻¹. In the test with Cow serum albumin [6], the koff was 0.015 s⁻¹.

B3: VHH moiety 27 (MC6.1C22-S107E) (VHH)
VHH: EVQLLESGGGLVQPGGSLRLSCAASGRYIDETAVAWFRQAPGKEREFVAGIGGGVDITYYADSVKGRFTISRDNSKNTLYLQMNSLRPEDTAVYYCAARPGRPLITEKVADLYPYWGQGTLVTVSS
For the molecule B3, the binding result (in test [7]; with Mouse serum albumin [8]; with Rat serum albumin [9]; with Pig serum albumin [10]; with Dog serum albumin [11]; with Cow serum albumin [12]) was “no binding (tested: 300 nM)” throughout. In addition, the koff with Human serum albumin was 0.014 s⁻¹.
